Laboratory results: US20230272099A1 (Chugai, published 2023)

T1: human FcgRIIa type R extracellular domain (human, UniProt P12318 34-217)
T1 construct: extracellular domain; also called hFcgRIIaR
T1 sequence (looked up): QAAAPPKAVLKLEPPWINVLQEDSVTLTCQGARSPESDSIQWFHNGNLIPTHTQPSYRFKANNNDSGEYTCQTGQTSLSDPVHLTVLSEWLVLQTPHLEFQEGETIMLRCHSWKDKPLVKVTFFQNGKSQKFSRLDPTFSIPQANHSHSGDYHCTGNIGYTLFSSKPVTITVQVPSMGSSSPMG

T2: human FcgRIIa type H extracellular domain (human, UniProt P12318 34-217)
T2 construct: extracellular domain; also called hFcgRIIaH
T2 sequence (looked up): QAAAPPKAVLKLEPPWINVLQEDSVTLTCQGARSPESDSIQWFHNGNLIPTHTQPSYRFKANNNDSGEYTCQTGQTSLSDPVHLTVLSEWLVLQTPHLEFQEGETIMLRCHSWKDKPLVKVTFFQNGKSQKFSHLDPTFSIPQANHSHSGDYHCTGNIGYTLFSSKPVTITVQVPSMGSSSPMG

T3: human FcgRIIb extracellular domain (human, UniProt P31994 43-217)
T3 construct: extracellular domain; also called hFcgRIIb
T3 sequence (looked up): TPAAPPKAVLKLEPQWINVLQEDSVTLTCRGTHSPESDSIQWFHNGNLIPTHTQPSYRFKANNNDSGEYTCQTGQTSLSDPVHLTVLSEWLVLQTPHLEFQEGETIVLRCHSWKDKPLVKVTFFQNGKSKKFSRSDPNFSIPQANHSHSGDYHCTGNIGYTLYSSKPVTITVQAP


Assays:
human FcRn = human FcRn (human, UniProt P55899 24-290; P61769 21-119); assay: SPR 25C pH 6.0, steady state
Procedure, shortened: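 Antibody (~400 RU) captured on anti-Fab-lambda sensor chip, human FcRn injected as analyte.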

[1] = target: T4, human FcgRIa extracellular domain (human, UniProt P12314 16-292); assay: SPR 25C
T4 construct: extracellular domain; also called hFcgRIa

[2] = target: T5, human FcgRIIIa F158 extracellular domain (human, UniProt P08637 17-208); assay: SPR 25C
T5 construct: extracellular domain; also called hFcgRIIIaF

[3] = target: T6, human FcgRIIIa V158 extracellular domain (human, UniProt P08637 17-208); assay: SPR 25C
T6 construct: extracellular domain; also called hFcgRIIIaV

[4] = target: T1, human FcgRIIa type R extracellular …; assay: SPR 25C
[5] = target: T2, human FcgRIIa type H extracellular …; assay: SPR 25C
[6] = target: T3, human FcgRIIb extracellular domain; assay: SPR 25C

T6 sequence (P08637 17-208 F176V): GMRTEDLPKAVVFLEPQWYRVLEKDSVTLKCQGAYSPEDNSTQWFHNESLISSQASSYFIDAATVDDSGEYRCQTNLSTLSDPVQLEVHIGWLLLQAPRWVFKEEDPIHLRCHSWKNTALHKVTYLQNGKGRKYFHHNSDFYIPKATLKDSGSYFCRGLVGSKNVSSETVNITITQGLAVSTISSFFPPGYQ
T5 sequence (P08637 17-208): as the sequence (P08637 17-208 F176V) above, with V160F counted along it
T4 sequence (P12314 16-292): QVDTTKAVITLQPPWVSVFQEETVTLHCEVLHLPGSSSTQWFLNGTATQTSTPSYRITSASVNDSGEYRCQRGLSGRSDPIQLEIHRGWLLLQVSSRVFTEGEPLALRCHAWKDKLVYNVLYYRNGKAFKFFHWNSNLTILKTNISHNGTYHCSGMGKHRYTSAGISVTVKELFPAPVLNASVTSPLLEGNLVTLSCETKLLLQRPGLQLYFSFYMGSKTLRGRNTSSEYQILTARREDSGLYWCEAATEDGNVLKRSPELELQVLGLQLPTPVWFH

Kd (human FcRn) [nM] | binding per 1RU antibody [1] [RU] | relative binding (A375-G1T3/B167-Lamlib=1) [1] | binding per 1RU antibody [2] [RU] | relative binding (A375-G1T3/B167-Lamlib=1) [2] | binding per 1RU antibody [3] [RU] | relative binding (A375-G1T3/B167-Lamlib=1) [3] | binding per 1RU antibody [4] [RU] | relative binding (A375-G1T3/B167-Lamlib=1) [4] | binding per 1RU antibody [5] [RU] | relative binding (A375-G1T3/B167-Lamlib=1) [5] | binding per 1RU antibody [6] [RU] | relative binding (A375-G1T3/B167-Lamlib=1) [6] | Binder
1000 | 0.0019 | 0.02 | 0.001 | 0.05 | 0.001 | 0.01 | 0.0299 | 0.64 | 0.0314 | 0.55 | 0.0292 | 2.67 | A375-SCF056aPh/B167-Lamlib (antibody, human IgG1, lambda, copies: 2 + 2) heavy: EVQLVESGGGLVKPGGSLRLSCAASGFTFSTFTMNWVRQAPGKGLEWVSSISSKSTYIEYADSFKVRFTISRDNAKNSLYLQMNSLRAEDTAVYYCARYGAKNFLNWVFDYWGQGTLVTVSSASTKGPSVFPLAPSSKSTSGGTAALGCLVKDYFPEPVTVSWNSGALTSGVHTFPAVLQSSGLYSLSSVVTVPSSSLGTQTYICNVNHKPSNTKVDKRVEPKSCDKTHTCPPCPAPELWNGPSVFLFPPKPKDTLMISRTPEVTCVVVDVSDEDPEVKFNWYVDGVEVHNAKTKPREEQYNSTYRVVSVLTVLHRDWLNGKEYKCKVSNKALPKPIEKTISKAKGQPREPQVYTLPPSREEMTKNQVSLTCLVKGFYPSDIAVEWESNGQPENNYKTTPPVLDSDGSFFLYSKLTVDKSRWQQGNVFSCSVMHEALHNHYTQKSLSLSP light: QSALTQPPSASGSPGQTVTISCTGTRYDVGYYEYVSWYQQHPGKAPKLMIYETSKRLSGVPDRFSGSKSGNTASLTVSGLQAEDEADYYCSSYRYEHQVSFGGGTKLTVLGQPKAAPSVTLFPPSSEELQANKATLVCLISDFYPGAVTVAWKADSSPVKAGVETTTPSKQSNNKYAASSYLSLTPEQWKSHRSYSCQVTHEGSTVEKTVAPTECS
928 | 0.0405 | 0.5 | 0.0013 | 0.06 | 0.0025 | 0.04 | 0.0367 | 0.79 | 0.0525 | 0.93 | 0.0412 | 3.76 | A375-SCF057a/B167-Lamlib (antibody, human IgG1, lambda) heavy: EVQLVESGGGLVKPGGSLRLSCAASGFTFSTFTMNWVRQAPGKGLEWVSSISSKSTYIEYADSFKVRFTISRDNAKNSLYLQMNSLRAEDTAVYYCARYGAKNFLNWVFDYWGQGTLVTVSSASTKGPSVFPLAPSSKSTSGGTAALGCLVKDYFPEPVTVSWNSGALTSGVHTFPAVLQSSGLYSLSSVVTVPSSSLGTQTYICNVNHKPSNTKVDKRVEPKSCDKTHTCPPCPAPELLNGPSVFLFPPKPKDTLMISRTPEVTCVVVDVSDEDPEVKFNWYVDGVEVHNAKTKPREEQYNSTYRVVSVLTVLHRDWLNGKEYKCKVSNKALPKPIEKTISKAKGQRREPQVYTLPPSREEMTKNQVSLTCLVKGFYPSDIAVEWESNGQPENNYKTTPPVLDSDGSFFLYSKLTVDKSRWQQGNVFSCSVMHEALHNHYTQKSLSLSP light: QSALTQPPSASGSPGQTVTISCTGTRYDVGYYEYVSWYQQHPGKAPKLMIYETSKRLSGVPDRFSGSKSGNTASLTVSGLQAEDEADYYCSSYRYEHQVSFGGGTKLTVLGQPKAAPSVTLFPPSSEELQANKATLVCLISDFYPGAVTVAWKADSSPVKAGVETTTPSKQSNNKYAASSYLSLTPEQWKSHRSYSCQVTHEGSTVEKTVAPTECS

The remaining lines, values behind:

Binder | Kd (human FcRn) [nM] | binding per 1RU antibody [1] [RU] | relative binding (A375-G1T3/B167-Lamlib=1) [1] | binding per 1RU antibody [2] [RU] | relative binding (A375-G1T3/B167-Lamlib=1) [2] | binding per 1RU antibody [3] [RU] | relative binding (A375-G1T3/B167-Lamlib=1) [3] | binding per 1RU antibody [4] [RU] | relative binding (A375-G1T3/B167-Lamlib=1) [4] | binding per 1RU antibody [5] [RU] | relative binding (A375-G1T3/B167-Lamlib=1) [5] | binding per 1RU antibody [6] [RU] | relative binding (A375-G1T3/B167-Lamlib=1) [6]
A375-SCF057aPh/B167-Lamlib (antibody, human IgG1, lambda) heavy: EVQLVESGGGLVKPGGSLRLSCAASGFTFSTFTMNWVRQAPGKGLEWVSSISSKSTYIEYADSFKVRFTISRDNAKNSLYLQMNSLRAEDTAVYYCARYGAKNFLNWVFDYWGQGTLVTVSSASTKGPSVFPLAPSSKSTSGGTAALGCLVKDYFPEPVTVSWNSGALTSGVHTFPAVLQSSGLYSLSSVVTVPSSSLGTQTYICNVNHKPSNTKVDKRVEPKSCDKTHTCPPCPAPELWNGPSVFLFPPKPKDTLMISRTPEVTCVVVDVSDEDPEVKFNWYVDGVEVHNAKTKPREEQYNSTYRVVSVLTVLHRDWLNGKEYKCKVSNKALPKPIEKTISKAKGQRREPQVYTLPPSREEMTKNQVSLTCLVKGFYPSDIAVEWESNGQPENNYKTTPPVLDSDGSFFLYSKLTVDKSRWQQGNVFSCSVMHEALHNHYTQKSLSLSP light: QSALTQPPSASGSPGQTVTISCTGTRYDVGYYEYVSWYQQHPGKAPKLMIYETSKRLSGVPDRFSGSKSGNTASLTVSGLQAEDEADYYCSSYRYEHQVSFGGGTKLTVLGQPKAAPSVTLFPPSSEELQANKATLVCLISDFYPGAVTVAWKADSSPVKAGVETTTPSKQSNNKYAASSYLSLTPEQWKSHRSYSCQVTHEGSTVEKTVAPTECS | 909 | 0.0021 | 0.03 | -0.0003 | -0.02 | 0.0005 | 0.01 | 0.0364 | 0.79 | 0.0365 | 0.64 | 0.0345 | 3.15
A375-SCF059aPh/B167-Lamlib (antibody, human IgG1, lambda, copies: 2 + 2) heavy: EVQLVESGGGLVKPGGSLRLSCAASGFTFSTFTMNWVRQAPGKGLEWVSSISSKSTYIEYADSFKVRFTISRDNAKNSLYLQMNSLRAEDTAVYYCARYGAKNFLNWVFDYWGQGTLVTVSSASTKGPSVFPLAPSSKSTSGGTAALGCLVKDYFPEPVTVSWNSGALTSGVHTFPAVLQSSGLYSLSSVVTVPSSSLGTQTYICNVNHKPSNTKVDKRVEPKSCDKTHTCPPCPAPELWNGPSVFLFPPKPKDTLMISRTPEVTCVVVDVSDEDPEVKFNWYVDGVEVHNAKTKPREEQYNSTYRVVSVLTVLHRDWLNGKEYKCKVSNKALPKPIEKTISKAKGQPREPQVYTLPPSREEMTKNQVSLTCLVKGFYPSDIAVEWESNGQPENNYKTTPPVLDSDGSFFLYSKLTVKKSRWQQGNVFSCSVMHEALHNHYTQKSLSLSP light: QSALTQPPSASGSPGQTVTISCTGTRYDVGYYEYVSWYQQHPGKAPKLMIYETSKRLSGVPDRFSGSKSGNTASLTVSGLQAEDEADYYCSSYRYEHQVSFGGGTKLTVLGQPKAAPSVTLFPPSSEELQANKATLVCLISDFYPGAVTVAWKADSSPVKAGVETTTPSKQSNNKYAASSYLSLTPEQWKSHRSYSCQVTHEGSTVEKTVAPTECS | 1050 | 0.0089 | 0.11 | 0.0003 | 0.01 | 0.0028 | 0.04 | 0.0319 | 0.69 | 0.0332 | 0.59 | 0.0291 | 2.66
A375-SCF059a/B167-Lamlib (antibody, human IgG1, lambda, copies: 2 + 2) heavy: EVQLVESGGGLVKPGGSLRLSCAASGFTFSTFTMNWVRQAPGKGLEWVSSISSKSTYIEYADSFKVRFTISRDNAKNSLYLQMNSLRAEDTAVYYCARYGAKNFLNWVFDYWGQGTLVTVSSASTKGPSVFPLAPSSKSTSGGTAALGCLVKDYFPEPVTVSWNSGALTSGVHTFPAVLQSSGLYSLSSVVTVPSSSLGTQTYICNVNHKPSNTKVDKRVEPKSCDKTHTCPPCPAPELLNGPSVFLFPPKPKDTLMISRTPEVTCVVVDVSDEDPEVKFNWYVDGVEVHNAKTKPREEQYNSTYRVVSVLTVLHRDWLNGKEYKCKVSNKALPKPIEKTISKAKGQPREPQVYTLPPSREEMTKNQVSLTCLVKGFYPSDIAVEWESNGQPENNYKTTPPVLDSDGSFFLYSKLTVKKSRWQQGNVFSCSVMHEALHNHYTQKSLSLSP light: QSALTQPPSASGSPGQTVTISCTGTRYDVGYYEYVSWYQQHPGKAPKLMIYETSKRLSGVPDRFSGSKSGNTASLTVSGLQAEDEADYYCSSYRYEHQVSFGGGTKLTVLGQPKAAPSVTLFPPSSEELQANKATLVCLISDFYPGAVTVAWKADSSPVKAGVETTTPSKQSNNKYAASSYLSLTPEQWKSHRSYSCQVTHEGSTVEKTVAPTECS | 1030 | 0.038 | 0.47 | 0.001 | 0.05 | 0.0021 | 0.03 | 0.0319 | 0.69 | 0.0502 | 0.88 | 0.0358 | 3.27
